Data on 3 variants can be found in IntAct's records for PubMed 10446210.

To fix the notation:
B1: "Na(+)/H(+) exchange regulatory cofactor NHE-RF1" (Oryctolagus cuniculus (Rabbit)), Q28619 (parent)
chain: MSADAAAGAPLPRLCCLEKGPNGYGFHLHGEKGKVGQYIRLVEPGSPAEKAGLLAGDRLVEVNGENVEKETHQQVVSRIRAALNAVRLLVVDPDTDEQFRKLGVQIRGELLRAQAGPEQAGPPAAPGEQGPAGENEPREVEKSHPERRELRPRLCAMKKGPNGYGFNLHSDKSRPGQFIRAVDPDSPAEASGLREQDRIVEVNGVCVEGKQHGDVVTAIKAGGDEAKLLVVDKETDEFFKKCKVVPSSEHLNGPLPEPFTNGEIQKNNPETLAPAASESPRPALARSASSDTSEELASQDSPKKEDSTAPSSTSSSSDPILDFSISLAVAKERAHQKRSSRRAPQMDWSEKKELFSNL

The variants in the first experiment derive from B1. As to conditions: with Grk6, O70293-1.
Chain of Grk6, O70293-1 (O70293 whole entry): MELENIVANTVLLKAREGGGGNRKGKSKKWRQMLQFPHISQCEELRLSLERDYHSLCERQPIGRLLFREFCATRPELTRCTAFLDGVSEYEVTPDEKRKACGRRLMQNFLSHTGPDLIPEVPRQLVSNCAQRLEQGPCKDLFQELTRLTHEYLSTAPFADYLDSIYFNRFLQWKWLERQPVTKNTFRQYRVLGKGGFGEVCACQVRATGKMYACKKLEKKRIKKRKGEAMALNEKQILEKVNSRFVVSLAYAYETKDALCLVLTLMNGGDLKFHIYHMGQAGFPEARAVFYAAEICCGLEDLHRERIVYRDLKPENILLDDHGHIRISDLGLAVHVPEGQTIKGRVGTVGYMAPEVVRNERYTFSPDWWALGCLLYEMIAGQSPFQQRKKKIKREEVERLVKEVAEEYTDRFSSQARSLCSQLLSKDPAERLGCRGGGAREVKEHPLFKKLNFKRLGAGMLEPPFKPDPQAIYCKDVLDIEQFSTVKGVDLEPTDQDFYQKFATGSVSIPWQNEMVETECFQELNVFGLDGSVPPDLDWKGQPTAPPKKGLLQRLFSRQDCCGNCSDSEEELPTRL
Consider MSADAAAGAPLPRLCCLEKGPNGYGFHLHGEKGKVGQYIRLVEPGSPAEKAGLLAGDRLVEVNGENVEKETHQQVVSRIRAALNAVRLLVVDPDTDEQFRKLGVQIRGELLRAQAGPEQAGPPAAPGEQGPAGENEPREVEKSHPERRELRPRLCAMKKGPNGYGFNLHSDKSRPGQFIRAVDPDSPAEASGLREQDRIVEVNGVCVEGKQHGDVVTAIKAGGDEAKLLVVDKETDEFFKKCKVVPSSEHLNGPLPEPFTNGEIQKNNPETLAPAASESPRPALARSAASDTSEELASQDSPKKEDSTAPSSTSSSSDPILDFSISLAVAKERAHQKRSSRRAPQMDWSEKKELFSNL [S289A], for which the “effect of a mutation on the interaction” value is listed as “disrupting interaction”.

A further experiment covers variants of B1. The conditions noted are these: with Grk6, O70293-1. This is another data set of the same source.
Take MSADAAAGAPLPRLCCLEKGPNGYGFHLHGEKGKVGQYIRLVEPGSPAEKAGLLAGDRLVEVNGENVEKETHQQVVSRIRAALNAVRLLVVDPDTDEQFRKLGVQIRGELLRAQAGPEQAGPPAAPGEQGPAGENEPREVEKSHPERRELRPRLCAMKAGPNGYGFNLHSDKSRPGQFIRAVDPDSPAEASGLREQDRIVEVNGVCVEGKQHGDVVTAIKAGGDEAKLLVVDKETDEFFKKCKVVPSSEHLNGPLPEPFTNGEIQKNNPETLAPAASESPRPALARSASSDTSEELASQDSPKKEDSTAPSSTSSSSDPILDFSISLAVAKERAHQKRSSRRAPQMDWSEKKELFSNL [K159A]: the “effect of a mutation on the interaction” value is given as “decreasing interaction”.
With MSADAAAGAPLPRLCCLEKGPNGYGFHLHGEKGKVGQYIRLVEPGSPAEKAGLLAGDRLVEVNGENVEKETHQQVVSRIRAALNAVRLLVVDPDTDEQFRKLGVQIRGELLRAQAGPEQAGPPAAPGEQGPAGENEPREVEKSHPERRELRPRLCAMAKGPNGYGFNLHSDKSRPGQFIRAVDPDSPAEASGLREQDRIVEVNGVCVEGKQHGDVVTAIKAGGDEAKLLVVDKETDEFFKKCKVVPSSEHLNGPLPEPFTNGEIQKNNPETLAPAASESPRPALARSASSDTSEELASQDSPKKEDSTAPSSTSSSSDPILDFSISLAVAKERAHQKRSSRRAPQMDWSEKKELFSNL [K158A], the “effect of a mutation on the interaction” value is on record as “decreasing interaction”.
